{"source": "paper PMC3193175", "molecular_target": "split SUMO-modified PCNA (N-fragment and ^SUMOC-fragment self-assembled) (yeast) (UniProt P15873)", "assay": "SEC"}
{"substance": "split SUMO-modified PCNA (N-fragment and ^SUMOC-fragment self-assembled) (from UniProt P15873 1-163; P15873 165-258) (complex)", "values": [{"measurement": "stoichiometry N", "value": 3}]}
